{
  "source": "patent US20260070987A1",
  "data": [
    {"biological_target": "equine FcRn (large alpha subunit p51) / equine beta-2-microglobulin complex, biotinylated (equine) (UniProt P30441)", "sequence (P30441 21-118, one chain of several)": "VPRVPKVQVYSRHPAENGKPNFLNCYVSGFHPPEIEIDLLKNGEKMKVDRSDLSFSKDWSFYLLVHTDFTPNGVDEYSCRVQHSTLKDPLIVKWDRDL", "assay": "SPR (Biacore), pH 6", "units": {"Kd": "nM"}, "values": [
      {"binder": "equine IgG4 T286C (antibody, part only; not given: variable domains, not shown: another chain or arm of the molecule) constant: ASTTAPKVFPLASHSAATSGSTVALGCLVSSYFPEPVTVSWNSGALTSGVHTFPSVLQSSGLYSLSSMVTVPASSLKSQTYICNVAHPASSTKVDKKIVIKECNGGCPAECLQVGPSVFIFPPKPKDVLMISRTPTVTCVVVDVGHDFPDVQFNWYVDGVETHCATTEPKQEQFNSTYRVVSVLPIQHKDWLSGKEFKCKVNNKALPAPVERTISKPTGQPREPQVYVLAPHRDELSKNKVSVTCLVKDFYPTDIDIEWKSNGQPEPETKYSTTPAQLDSDGSYFLYSKLTVETNRWQQGTTFTCAVMHEALHNHYTEKSVSKSPGK", "Kd": 34.4},
      {"binder": "equine IgG4 T286P (antibody, part only; not given: variable domains, not shown: another chain or arm of the molecule) constant: ASTTAPKVFPLASHSAATSGSTVALGCLVSSYFPEPVTVSWNSGALTSGVHTFPSVLQSSGLYSLSSMVTVPASSLKSQTYICNVAHPASSTKVDKKIVIKECNGGCPAECLQVGPSVFIFPPKPKDVLMISRTPTVTCVVVDVGHDFPDVQFNWYVDGVETHPATTEPKQEQFNSTYRVVSVLPIQHKDWLSGKEFKCKVNNKALPAPVERTISKPTGQPREPQVYVLAPHRDELSKNKVSVTCLVKDFYPTDIDIEWKSNGQPEPETKYSTTPAQLDSDGSYFLYSKLTVETNRWQQGTTFTCAVMHEALHNHYTEKSVSKSPGK", "Kd": 5.2},
      {"binder": "equine IgG4 T286L (antibody, part only; not given: variable domains, not shown: another chain or arm of the molecule) constant: ASTTAPKVFPLASHSAATSGSTVALGCLVSSYFPEPVTVSWNSGALTSGVHTFPSVLQSSGLYSLSSMVTVPASSLKSQTYICNVAHPASSTKVDKKIVIKECNGGCPAECLQVGPSVFIFPPKPKDVLMISRTPTVTCVVVDVGHDFPDVQFNWYVDGVETHLATTEPKQEQFNSTYRVVSVLPIQHKDWLSGKEFKCKVNNKALPAPVERTISKPTGQPREPQVYVLAPHRDELSKNKVSVTCLVKDFYPTDIDIEWKSNGQPEPETKYSTTPAQLDSDGSYFLYSKLTVETNRWQQGTTFTCAVMHEALHNHYTEKSVSKSPGK", "Kd": 17.5},
      {"binder": "equine IgG4 T286F (antibody, part only; not given: variable domains, not shown: another chain or arm of the molecule) constant: ASTTAPKVFPLASHSAATSGSTVALGCLVSSYFPEPVTVSWNSGALTSGVHTFPSVLQSSGLYSLSSMVTVPASSLKSQTYICNVAHPASSTKVDKKIVIKECNGGCPAECLQVGPSVFIFPPKPKDVLMISRTPTVTCVVVDVGHDFPDVQFNWYVDGVETHFATTEPKQEQFNSTYRVVSVLPIQHKDWLSGKEFKCKVNNKALPAPVERTISKPTGQPREPQVYVLAPHRDELSKNKVSVTCLVKDFYPTDIDIEWKSNGQPEPETKYSTTPAQLDSDGSYFLYSKLTVETNRWQQGTTFTCAVMHEALHNHYTEKSVSKSPGK", "Kd": 22.2},
      {"binder": "equine IgG4 T286R (antibody, part only; not given: variable domains, not shown: another chain or arm of the molecule) constant: ASTTAPKVFPLASHSAATSGSTVALGCLVSSYFPEPVTVSWNSGALTSGVHTFPSVLQSSGLYSLSSMVTVPASSLKSQTYICNVAHPASSTKVDKKIVIKECNGGCPAECLQVGPSVFIFPPKPKDVLMISRTPTVTCVVVDVGHDFPDVQFNWYVDGVETHRATTEPKQEQFNSTYRVVSVLPIQHKDWLSGKEFKCKVNNKALPAPVERTISKPTGQPREPQVYVLAPHRDELSKNKVSVTCLVKDFYPTDIDIEWKSNGQPEPETKYSTTPAQLDSDGSYFLYSKLTVETNRWQQGTTFTCAVMHEALHNHYTEKSVSKSPGK", "Kd": 21.4},
      {"binder": "equine IgG4 T286S (antibody, part only; not given: Variable domains, not shown: another chain or arm of the molecule) constant: ASTTAPKVFPLASHSAATSGSTVALGCLVSSYFPEPVTVSWNSGALTSGVHTFPSVLQSSGLYSLSSMVTVPASSLKSQTYICNVAHPASSTKVDKKIVIKECNGGCPAECLQVGPSVFIFPPKPKDVLMISRTPTVTCVVVDVGHDFPDVQFNWYVDGVETHSATTEPKQEQFNSTYRVVSVLPIQHKDWLSGKEFKCKVNNKALPAPVERTISKPTGQPREPQVYVLAPHRDELSKNKVSVTCLVKDFYPTDIDIEWKSNGQPEPETKYSTTPAQLDSDGSYFLYSKLTVETNRWQQGTTFTCAVMHEALHNHYTEKSVSKSPGK", "Kd": 24.1},
      {"binder": "equine IgG4 T286E (antibody, part only; not given: variable domains, not shown: another chain or arm of the molecule) constant: ASTTAPKVFPLASHSAATSGSTVALGCLVSSYFPEPVTVSWNSGALTSGVHTFPSVLQSSGLYSLSSMVTVPASSLKSQTYICNVAHPASSTKVDKKIVIKECNGGCPAECLQVGPSVFIFPPKPKDVLMISRTPTVTCVVVDVGHDFPDVQFNWYVDGVETHEATTEPKQEQFNSTYRVVSVLPIQHKDWLSGKEFKCKVNNKALPAPVERTISKPTGQPREPQVYVLAPHRDELSKNKVSVTCLVKDFYPTDIDIEWKSNGQPEPETKYSTTPAQLDSDGSYFLYSKLTVETNRWQQGTTFTCAVMHEALHNHYTEKSVSKSPGK", "Kd": 252},
      {"binder": "equine IgG4 T286H (antibody, part only; not given: variable domains, not shown: another chain or arm of the molecule) constant: ASTTAPKVFPLASHSAATSGSTVALGCLVSSYFPEPVTVSWNSGALTSGVHTFPSVLQSSGLYSLSSMVTVPASSLKSQTYICNVAHPASSTKVDKKIVIKECNGGCPAECLQVGPSVFIFPPKPKDVLMISRTPTVTCVVVDVGHDFPDVQFNWYVDGVETHHATTEPKQEQFNSTYRVVSVLPIQHKDWLSGKEFKCKVNNKALPAPVERTISKPTGQPREPQVYVLAPHRDELSKNKVSVTCLVKDFYPTDIDIEWKSNGQPEPETKYSTTPAQLDSDGSYFLYSKLTVETNRWQQGTTFTCAVMHEALHNHYTEKSVSKSPGK", "Kd": 27.1},
      {"binder": "equine IgG4 T286D (antibody, part only; not given: variable domains, not shown: another chain or arm of the molecule) constant: ASTTAPKVFPLASHSAATSGSTVALGCLVSSYFPEPVTVSWNSGALTSGVHTFPSVLQSSGLYSLSSMVTVPASSLKSQTYICNVAHPASSTKVDKKIVIKECNGGCPAECLQVGPSVFIFPPKPKDVLMISRTPTVTCVVVDVGHDFPDVQFNWYVDGVETHDATTEPKQEQFNSTYRVVSVLPIQHKDWLSGKEFKCKVNNKALPAPVERTISKPTGQPREPQVYVLAPHRDELSKNKVSVTCLVKDFYPTDIDIEWKSNGQPEPETKYSTTPAQLDSDGSYFLYSKLTVETNRWQQGTTFTCAVMHEALHNHYTEKSVSKSPGK", "Kd": 492},
      {"binder": "equine IgG4 T286Q (antibody, part only; not given: Variable domains, not shown: another chain or arm of the molecule) constant: ASTTAPKVFPLASHSAATSGSTVALGCLVSSYFPEPVTVSWNSGALTSGVHTFPSVLQSSGLYSLSSMVTVPASSLKSQTYICNVAHPASSTKVDKKIVIKECNGGCPAECLQVGPSVFIFPPKPKDVLMISRTPTVTCVVVDVGHDFPDVQFNWYVDGVETHQATTEPKQEQFNSTYRVVSVLPIQHKDWLSGKEFKCKVNNKALPAPVERTISKPTGQPREPQVYVLAPHRDELSKNKVSVTCLVKDFYPTDIDIEWKSNGQPEPETKYSTTPAQLDSDGSYFLYSKLTVETNRWQQGTTFTCAVMHEALHNHYTEKSVSKSPGK", "Kd": 24.5},
      {"binder": "equine IgG4 T286G (antibody, part only; not given: variable domains, not shown: another chain or arm of the molecule) constant: ASTTAPKVFPLASHSAATSGSTVALGCLVSSYFPEPVTVSWNSGALTSGVHTFPSVLQSSGLYSLSSMVTVPASSLKSQTYICNVAHPASSTKVDKKIVIKECNGGCPAECLQVGPSVFIFPPKPKDVLMISRTPTVTCVVVDVGHDFPDVQFNWYVDGVETHGATTEPKQEQFNSTYRVVSVLPIQHKDWLSGKEFKCKVNNKALPAPVERTISKPTGQPREPQVYVLAPHRDELSKNKVSVTCLVKDFYPTDIDIEWKSNGQPEPETKYSTTPAQLDSDGSYFLYSKLTVETNRWQQGTTFTCAVMHEALHNHYTEKSVSKSPGK", "Kd": 23.3},
      {"binder": "equine IgG4 T286M (antibody, part only; not given: variable domains, not shown: another chain or arm of the molecule) constant: ASTTAPKVFPLASHSAATSGSTVALGCLVSSYFPEPVTVSWNSGALTSGVHTFPSVLQSSGLYSLSSMVTVPASSLKSQTYICNVAHPASSTKVDKKIVIKECNGGCPAECLQVGPSVFIFPPKPKDVLMISRTPTVTCVVVDVGHDFPDVQFNWYVDGVETHMATTEPKQEQFNSTYRVVSVLPIQHKDWLSGKEFKCKVNNKALPAPVERTISKPTGQPREPQVYVLAPHRDELSKNKVSVTCLVKDFYPTDIDIEWKSNGQPEPETKYSTTPAQLDSDGSYFLYSKLTVETNRWQQGTTFTCAVMHEALHNHYTEKSVSKSPGK", "Kd": 20.3},
      {"binder": "equine IgG4 T286K (antibody, part only; not given: variable domains, not shown: another chain or arm of the molecule) constant: ASTTAPKVFPLASHSAATSGSTVALGCLVSSYFPEPVTVSWNSGALTSGVHTFPSVLQSSGLYSLSSMVTVPASSLKSQTYICNVAHPASSTKVDKKIVIKECNGGCPAECLQVGPSVFIFPPKPKDVLMISRTPTVTCVVVDVGHDFPDVQFNWYVDGVETHKATTEPKQEQFNSTYRVVSVLPIQHKDWLSGKEFKCKVNNKALPAPVERTISKPTGQPREPQVYVLAPHRDELSKNKVSVTCLVKDFYPTDIDIEWKSNGQPEPETKYSTTPAQLDSDGSYFLYSKLTVETNRWQQGTTFTCAVMHEALHNHYTEKSVSKSPGK", "Kd": 24.7},
      {"binder": "equine IgG4 T286I (antibody, part only; not given: variable domains, not shown: another chain or arm of the molecule) constant: ASTTAPKVFPLASHSAATSGSTVALGCLVSSYFPEPVTVSWNSGALTSGVHTFPSVLQSSGLYSLSSMVTVPASSLKSQTYICNVAHPASSTKVDKKIVIKECNGGCPAECLQVGPSVFIFPPKPKDVLMISRTPTVTCVVVDVGHDFPDVQFNWYVDGVETHIATTEPKQEQFNSTYRVVSVLPIQHKDWLSGKEFKCKVNNKALPAPVERTISKPTGQPREPQVYVLAPHRDELSKNKVSVTCLVKDFYPTDIDIEWKSNGQPEPETKYSTTPAQLDSDGSYFLYSKLTVETNRWQQGTTFTCAVMHEALHNHYTEKSVSKSPGK", "Kd": 13.3},
      {"binder": "equine IgG1 T286Y (antibody, part only; not given: variable domains, not shown: another chain or arm of the molecule) constant: ASTTAPKVFALAPGCGTTSDSTVALGCLVSGYFPEPVKVSWNSGSLTSGVHTFPSVLQSSGFYSLSSMVTVPASTWTSETYICNVVHAASNFKVDKRIEPIPDNHQKVCDMSKCPKCPAPELLGGPSVFIFPPNPKDTLMITRTPEVTCVVVDVSQENPDVKFNWYMDGVEVRYATTRPKEEQFNSTYRVVSVLRIQHQDWLSGKEFKCKVNNQALPQPIERTITKTKGRSQEPQVYVLAPHPDELSKSKVSVTCLVKDFYPPEINIEWQSNGQPELETKYSTTQAQQDSDGSYFLYSKLSVDRNRWQQGTTFTCGVMHEALHNHYTQKNVSKNPGK", "Kd": 15},
      {"binder": "equine IgG1 Q311A (antibody, part only; not given: variable domains, not shown: another chain or arm of the molecule) constant: ASTTAPKVFALAPGCGTTSDSTVALGCLVSGYFPEPVKVSWNSGSLTSGVHTFPSVLQSSGFYSLSSMVTVPASTWTSETYICNVVHAASNFKVDKRIEPIPDNHQKVCDMSKCPKCPAPELLGGPSVFIFPPNPKDTLMITRTPEVTCVVVDVSQENPDVKFNWYMDGVEVRTATTRPKEEQFNSTYRVVSVLRIQHADWLSGKEFKCKVNNQALPQPIERTITKTKGRSQEPQVYVLAPHPDELSKSKVSVTCLVKDFYPPEINIEWQSNGQPELETKYSTTQAQQDSDGSYFLYSKLSVDRNRWQQGTTFTCGVMHEALHNHYTQKNVSKNPGK", "Kd": 21}
    ]}
  ]
}
